What was measured:
[1] = target: murine VEGF (mouse) (UniProt Q00731); test: 25C; given as unpublished results
[2] = target: murine VEGF (mouse) (UniProt Q00731); test: BIAcore or solution binding ELISA, Fab, measured as control in the same assays
[3] = target: T1, human placenta growth factor (PlGF-2) (human, UniProt P49763-3 19-170, limits assumed); test: direct ELISA on homolog-coated wells (2ug/ml), increasing G6 Fab
T1 construct: also called human P1GF-2
T1 sequence (looked up): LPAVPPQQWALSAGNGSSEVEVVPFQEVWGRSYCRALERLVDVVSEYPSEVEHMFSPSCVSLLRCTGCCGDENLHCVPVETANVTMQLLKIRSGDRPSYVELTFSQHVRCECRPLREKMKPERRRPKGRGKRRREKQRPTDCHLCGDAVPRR

[4] = target: T2, mouse placenta growth factor (PlGF-2) (mouse, UniProt P49764 24-158, limits assumed); test: as above
T2 construct: also called murine P1GF-2
T2 sequence (looked up): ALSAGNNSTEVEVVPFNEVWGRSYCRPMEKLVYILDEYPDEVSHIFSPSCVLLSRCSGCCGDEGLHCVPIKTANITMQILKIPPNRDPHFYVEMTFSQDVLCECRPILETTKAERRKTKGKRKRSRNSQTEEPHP

[5] = target: T3, murine VEGF-D (mouse, UniProt P97946 98-206, limits assumed); test: as above
T3 construct: also called mVEGF-D
T3 sequence (looked up): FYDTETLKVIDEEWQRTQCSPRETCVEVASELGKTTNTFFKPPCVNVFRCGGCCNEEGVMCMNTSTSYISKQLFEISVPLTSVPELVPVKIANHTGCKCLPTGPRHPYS

[6] = target: T4, human VEGF-B (human, UniProt P49765-2 22-188, limits assumed); test: as above
T4 sequence (looked up): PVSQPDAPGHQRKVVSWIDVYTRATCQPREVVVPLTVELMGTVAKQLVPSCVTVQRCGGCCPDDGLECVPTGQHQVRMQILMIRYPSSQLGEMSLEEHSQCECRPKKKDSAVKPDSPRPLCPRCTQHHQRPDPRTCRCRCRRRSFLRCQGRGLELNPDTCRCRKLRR

murine VEGF (mouse), sequence (Q00731 other isoform, or with tags, fused parts or gaps limits assumed): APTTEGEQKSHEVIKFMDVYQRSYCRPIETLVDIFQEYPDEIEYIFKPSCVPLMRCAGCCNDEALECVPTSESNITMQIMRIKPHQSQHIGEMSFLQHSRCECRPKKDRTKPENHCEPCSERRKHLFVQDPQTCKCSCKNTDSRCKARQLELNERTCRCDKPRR

Y0317 Fab
Kd [1]: 300 nM | affinity [2]: 350 nM

B1: G6 Fab (Fab, V domains shown)
VH: EVQLVESGGGLVQPGGSLRLSCAASGFTISDYWIHWVRQAPGKGLEWVAGITPAGGYTYYADSVKGRFTISADTSKNTAYLQMNSLRAEDTAVYYCARFVFFLPYAMDYWGQGTLVTVSS
VL: DIQMTQSPSSLSASVGDRVTITCRASQDVSTAVAWYQQKPGKAPKLLIYSASFLYSGVPSRFSGSGSGTDFTLTISSLQPEDFATYYCQQSYTTPPTFGQGTKVEIKR
notes: also called G6 antibody; G6 clone
binding result [3]: no binding | binding result [4]: no binding | binding result [5]: no binding | binding result [6]: no binding
